Reference: patent US20230265151A1, “GIP/GLP1 CO-AGONIST COMPOUNDS” (priority 2020, published 2023)
Where a chain is given by its changes, count along the chain named.

T1: human GIP receptor (human, UniProt P48546 22-466)
T1 sequence (looked up): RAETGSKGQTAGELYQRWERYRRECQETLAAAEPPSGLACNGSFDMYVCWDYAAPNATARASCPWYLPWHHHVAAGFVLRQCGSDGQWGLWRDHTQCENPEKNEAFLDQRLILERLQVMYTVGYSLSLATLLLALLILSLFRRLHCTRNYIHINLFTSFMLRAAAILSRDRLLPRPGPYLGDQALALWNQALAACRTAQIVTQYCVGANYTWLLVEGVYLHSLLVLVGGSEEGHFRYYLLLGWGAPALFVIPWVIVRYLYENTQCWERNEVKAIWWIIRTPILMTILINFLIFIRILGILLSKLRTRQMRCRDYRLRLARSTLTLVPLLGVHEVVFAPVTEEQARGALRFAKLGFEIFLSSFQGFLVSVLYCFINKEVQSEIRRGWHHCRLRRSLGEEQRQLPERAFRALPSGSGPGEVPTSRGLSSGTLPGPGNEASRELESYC

T2: human glucose-dependent insulinotropic polypeptide (GIP) receptor (human, UniProt P48546 22-466)
T2 sequence (looked up): T1 sequence (looked up)

T3: human GIP receptor (human) (UniProt P48546)
T3 sequence (looked up): T1 sequence (looked up)

T4: human GIP receptor (human, UniProt P48546 22-466)
T4 sequence (looked up): T1 sequence (looked up)

B1: Y-Aib-EGT-αMeF(2F)-TSD-4Pal-SI-αMeL-LD-Orn-IAQ-Aib-K((2-[2-(2-Amino-ethoxy)-ethoxy]-acetyl)2-CO-(CH2)12-CO2H)FI-(D-Glu)-αMeY-LIEGGK((2-[2-(2-Amino-ethoxy)-ethox … (peptide)
peptide: YXEGTXTSDXSIXLDXIAQXKFIXXLIEGGKSSGAPPPS
modifications: Aib2, αMeF(2F)6, 4Pal10, αMeL13, Orn16, Aib20, D-Glu24, αMeY25; acylated K21, K31 (groups as in name); C-terminal amide
B2: Y-Aib-EGT-αMeF(2F)-TSD-4Pal-SI-αMeL-LD-Orn-IAQ-Aib-EFIK((2-[2-(2-Amino-ethoxy)-ethoxy]-acetyl)2-(γ-Glu)-(4-(4-tert-butylphenyl)butanoyl))-αMeY-LIK((2-[2-(2-Amin … (peptide)
peptide: B1 peptide with K21E, X24K, E28K, K31P
modifications: Aib2, αMeF(2F)6, 4Pal10, αMeL13, Orn16, Aib20, αMeY25; acylated K24, K28 (groups as in name); C-terminal amide
B3: Example 202 (peptide)
peptide: B1 peptide with S11X, I17K, K21E
modifications: Aib2, αMeF(2F)6, 4Pal10, Tle11, αMeL13, Orn16, K17(Z), Aib20, D-Glu24, αMeY25, K31(Z), C-terminal NH2; Z = AEEA2-(γ-Glu)-CO-(CH2)12-CO2H
B4: Y-Aib-EGT-αMeF(2F)-TSD-4Pal-SI-αMeL-LD-Orn-IAQ-Aib-EFI-(D-Glu)-αMeY-LIK((2-[2-(2-Amino-ethoxy)-ethoxy]-acetyl)2-(γ-Glu)-CO-(CH2)14-CH3)GGK((2-[2-(2-Amino-ethoxy … (peptide)
peptide: B1 peptide with K21E, E28K
modifications: Aib2, αMeF(2F)6, 4Pal10, αMeL13, Orn16, Aib20, D-Glu24, αMeY25; acylated K28, K31 (groups as in name); C-terminal amide
B5: Y-Aib-EGT-αMeF(2F)-TSD-4Pal-SI-αMeL-LD-Orn-IAQ-Aib-EFI-(D-Glu)-αMeY-LIK((2-[2-(2-Amino-ethoxy)-ethoxy]-acetyl)2-(γ-Glu)-CO-(CH2)12-CO2H)GGK((2-[2-(2-Amino-ethox … (peptide)
peptide: B1 peptide with K21E, E28K
modifications: Aib2, αMeF(2F)6, 4Pal10, αMeL13, Orn16, Aib20, D-Glu24, αMeY25; acylated K28, K31 (groups as in name); C-terminal amide
B6: Example 224 (peptide)
peptide: B1 peptide with I17K, K21E, E28K, K31P
modifications: Aib2, αMeF(2F)6, 4Pal10, αMeL13, Orn16, K17(Z), Aib20, D-Glu24, αMeY25, K28(Z), C-terminal NH2; Z = AEEA3-(γ-Glu)-CO-(CH2)12-CO2H
B7: Y-Aib-EGT-αMeF(2F)-TSD-4Pal-SI-αMeL-LD-Orn-IAQ-Aib-EFIK((2-[2-(2-Amino-ethoxy)-ethoxy]-acetyl)2-(γ-Glu)-CO-(CH2)12-CO2H)-αMeY-LIK((2-[2-(2-Amino-ethoxy)-ethoxy] … (peptide)
peptide: B1 peptide with K21E, X24K, E28K, K31P
modifications: Aib2, αMeF(2F)6, 4Pal10, αMeL13, Orn16, Aib20, αMeY25; acylated K24, K28 (groups as in name); C-terminal amide
B8: Example 210 (peptide)
peptide: B1 peptide with I17K, K21E, E28K, K31P
modifications: Aib2, αMeF(2F)6, 4Pal10, αMeL13, Orn16, K17(Z), Aib20, D-Glu24, αMeY25, K28(Z), C-terminal NH2; Z = AEEA2-CO-(CH2)12-CO2H
B9: Example 213 (peptide)
peptide: B1 peptide with S11X, I17K, K21E
modifications: Aib2, αMeF(2F)6, 4Pal10, αMeS11, αMeL13, Orn16, K17(Z), Aib20, D-Glu24, αMeY25, K31(Z), C-terminal NH2; Z = AEEA2-(γ-Glu)-CO-(CH2)12-CO2H
B10: Example 208 (peptide)
peptide: B1 peptide with I17K, K21E, E28K, K31P
modifications: Aib2, αMeF(2F)6, 4Pal10, αMeL13, Orn16, K17(Z), Aib20, D-Glu24, αMeY25, K28(Z), C-terminal NH2; Z = AEEA-(γ-Glu)-(4-(4-tert-butylphenyl)butanoyl)
B11: Example 203 (peptide)
peptide: B1 peptide with K21E, X24K, E28K, K31P
modifications: Aib2, αMeF(2F)6, 4Pal10, αMeL13, Orn16, Aib20, K24(Z), αMeY25, K28(Z), C-terminal NH2; Z = AEEA2-(γ-Glu)-(4-(4-tert-butylphenyl)butanoyl)
B12: Example 204 (peptide)
peptide: B1 peptide with E28K, K31P
modifications: Aib2, αMeF(2F)6, 4Pal10, αMeL13, Orn16, Aib20, K21(Z), D-Glu24, αMeY25, K28(Z), C-terminal NH2; Z = AEEA2-(γ-Glu)-(4-(4-tert-butylphenyl)butanoyl)
B13: Example 489 (peptide)
peptide: YXEGTXTSDXXIXLDXQAQXKFIXXLIEGGPSSGAPPPSK
modifications: Y-Aib-EGT-αMeF(2F)-TSD-4Pal-Aib-I-αMeL-LD-Orn-QAQ-Aib-K((2-[2-(2-Amino-ethoxy)-ethoxy]-acetyl)2-(γ-Glu)-CO-(CH2)12-CO2H)FI-(D-Glu)-αMeY-LIEGGPSSGAPPPSK((2-[2-(2-Amino-ethoxy)-ethoxy]-acetyl)2-(γ-Glu)-CO-(CH2)12-CO2H)-NH2
B14: Example 209 (peptide)
peptide: B13 peptide with X11S, Q17K, K21E
modifications: Aib2, αMeF(2F)6, 4Pal10, αMeL13, Orn16, K17(Z), Aib20, D-Glu24, αMeY25, K40(Z), C-terminal NH2; Z = AEEA-(γ-Glu)-(4-(4-tert-butylphenyl)butanoyl)
B15: Example 221 (peptide)
peptide: B13 peptide with X11S, Q17K, K21E
modifications: Aib2, αMeF(2F)6, 4Pal10, αMeL13, Orn16, K17(Z), Aib20, D-Glu24, αMeY25, K40(Z), C-terminal NH2; Z = AEEA2-CO-(CH2)12-CO2H
B16: Example 205 (peptide)
peptide: B13 peptide with X11S, Q17I
modifications: Aib2, αMeF(2F)6, 4Pal10, αMeL13, Orn16, Aib20, K21(Z), D-Glu24, αMeY25, K40(Z), C-terminal NH2; Z = AEEA2-(γ-Glu)-(4-(4-tert-butylphenyl)butanoyl)

Tests used:
Experiment in all cases: cell-based or functional assay
[1] = molecular target: T1, human GIP receptor
[2] = molecular target: human glucagon receptor (human, UniProt P47871 26-477)
[3] = molecular target: human glucagon-like peptide-1 (GLP-1) receptor (human, UniProt P43220 24-463)
[4] = molecular target: human glucagon receptor (human, UniProt P47871 26-477); remark: listed apart in the source
[5] = molecular target: T2, human glucose-dependent insulinotropic …
[6] = molecular target: T3, human GIP receptor (human)
[7] = molecular target: hGLP-1R (Homo sapiens, UniProt P43220)
[8] = molecular target: human glucagon receptor (human) (UniProt P47871)
[9] = molecular target: T4, human GIP receptor; remark: listed apart in the source
[10] = molecular target: human glucagon receptor (human, UniProt P47871 26-477); remark: listed apart in the source
Target sequence in this assay (P47871 26-477): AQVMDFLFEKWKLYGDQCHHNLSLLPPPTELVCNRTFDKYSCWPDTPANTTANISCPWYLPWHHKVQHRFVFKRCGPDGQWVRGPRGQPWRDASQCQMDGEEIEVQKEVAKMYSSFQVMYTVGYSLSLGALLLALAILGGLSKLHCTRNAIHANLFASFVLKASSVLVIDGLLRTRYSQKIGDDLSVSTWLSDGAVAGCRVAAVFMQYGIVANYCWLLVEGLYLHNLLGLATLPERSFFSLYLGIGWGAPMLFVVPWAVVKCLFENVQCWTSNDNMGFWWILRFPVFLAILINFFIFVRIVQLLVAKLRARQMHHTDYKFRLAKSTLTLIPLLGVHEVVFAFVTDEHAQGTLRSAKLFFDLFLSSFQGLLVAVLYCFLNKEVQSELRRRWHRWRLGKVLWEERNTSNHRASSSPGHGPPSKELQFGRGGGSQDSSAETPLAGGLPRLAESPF

[11] = molecular target: human GLP-1 receptor (human, UniProt P43220 24-463)

Binder	cAMP EC50 (1.0% HSA) [1] [nM]	cAMP EC50 (1.0% HSA) [2] [nM]	cAMP EC50 [3] [nM]	cAMP Emax [3] [%]	cAMP EC50 [4] [nM]	cAMP EC50 [5] [nM]	other results
B1	0.771	> 9950	–	–	–	–	–
B2	0.682	> 9950	–	–	–	–	–
B3	–	–	0.944	92.2	> 9950	0.057	cAMP Emax [5]: 86%
B4	1.2	> 9950	–	–	–	–	–
B5	1.66	> 9950	–	–	–	–	–
B6	–	–	7.51	88.4	> 9950	0.0374	–
B7	1.73	> 9950	–	–	–	–	–
B8	–	–	0.57	–	> 9950	0.02	–
B9	–	–	2.14	94.8	> 9950	0.0275	cAMP Emax [5]: 92%
B10	–	–	0.238	–	> 9950	0.018	–
B11	–	–	0.535	–	> 9950	0.0721	–
B12	–	–	0.47	126	> 9950	0.0304	–
B13	–	–	–	–	–	–	cAMP EC50 [6]: 0.0131 nM; cAMP Emax [6]: 103%; cAMP EC50 [7]: 0.257 nM; cAMP Emax [7]: 112%; cAMP EC50 [8]: > 10100 nM; cAMP EC50 (1.0% HSA) [9]: 0.578 nM; cAMP Emax (1.0% HSA) [9]: 79.4%; cAMP EC50 (1.0% HSA) [10]: > 9950 nM; cAMP EC50 (1.0% HSA) [11]: 13.5 nM; cAMP Emax (1.0% HSA) [11]: 98.7%
B14	–	–	0.235	–	> 9950	0.0133	–
B15	–	–	1.83	83	> 9950	0.0279	–
B16	–	–	0.287	–	> 9950	0.0264	–
